# Results taken from patent publication US20240182547A1 (MOGAM INSTITUTE FOR BIOMEDICAL RESEARCH, published 2024).
# Numbering of substitutions follows the chain as printed.
# B1: 2G4 (antibody, V domains shown)
# VH: EVQLVESGGGLVKPGGSLRLSCAASGFTFSSYTMHWVRQAPGKGLEWVSSITGGSSYVDYSASVKGRFTISRDNAQSSLYLQMNSLRAEDTAVYYCARDDYGSGSYSNWFDPWGQGTLVTVSS
# VL: QSVLTQPPSVSGAPGQRVTISCTGSSSNIGAGYDVHWYQQVPGTAPKLLIFGSTNRPSGVPDRFSGSKSGTSASLAITGLQADDEADYYCQSYDRSLSHVFGTGTKVTVLG
# notes: IgG made in Expi293; also called #1
# B2: 2H1 (antibody, V domains shown)
# VH: B1 VH with E1Q, Q3T, V5K, L11V, K13Q, P14S, G16R
# VL: B1 VL with V41L, T44R, F51Y, G52A, S53N, P61A, T71A
# notes: IgG made in Expi293; also called #9
# B3: 4G4 (antibody, V domains shown)
# VH: B1 VH with A24G
# VL: B1 VL with S25N, I29L, V41L, F51Y, G52A, S53N, T71A, A82T, D83E
# notes: IgG made in Expi293; also called #10; 10
# B4: 12E9 (antibody, V domains shown)
# VH: B1 VH with S30T, T33R, S55G, S56N, V58I, D59E, S61A, A62D
# VL: B1 VL with S2T, L4V, P7E, V41L, T44R, G52A, S53N, T71A
# notes: IgG made in Expi293; also called #11; 11
# B5: #11m (antibody, V domains shown)
# VH: B1 VH with S30T, T33R, S55G, S56N, V58I, D59E, S61A, A62D
# VL: B1 VL with V41L, T44R, G52A, S53N, T71A
# notes: Germline-edited (m) form of 12E9, light chain edited; IgG; also called 12E9 (modified)
# B6: 4F11 (antibody, V domains shown)
# VH: B1 VH with A24G, T28A, V58L, S61A, A62H, A75G, S77N, Y80F, A88T, W109Y
# VL: B1 VL with S2P, T71A, A82T, D83E
# notes: IgG made in Expi293; also called #12; 12
# B7: #12m (antibody, V domains shown)
# VH: B1 VH with A24G, T28A, V58L, S61A, A62H, A75G, S77N, Y80F, A88T, W109Y
# VL: B1 VL with T71A, A82T, D83E
# notes: Germline-edited (m) form of 4F11, light chain edited; IgG; also called 4F11 (modified)
# B8: 10E7 (antibody, V domains shown)
# VH: EVQLVESGGGLVKPGGSLRLSCAASGFTFTSYRMHWVRQAPGKGLEWVSSITGGGNYIEYADSVKGRFTISRDNAKNSLDLQMNSLRAEDTAIYYCARDMYGLGSYYSPNYFDSWGQGTLVTVSS
# VL: B1 VL with V41L, T44R, G52A, S53N, T71A
# notes: IgG made in Expi293; also called #13; 13
# B9: 2E9 (antibody, V domains shown)
# VH: B1 VH with E1Q, Q3T, V5K, A24G, Q76K, S77N, Y80F
# VL: B1 VL with V41L, T44R, G52A, S53N, T71A
# notes: IgG made in Expi293; also called #14; 14
# B10: 12B11 (antibody, V domains shown)
# VH: EVQLVESGGGVVQPGRSLRLACAASGFTFNSYAMHWVRQAPGKGLEWVSSITGGSSYVDYSASVKGRFTISRDNAQSSLYLQMNSLRAEDTAVYYCARDMYGLGSYYSPNYFDPWGQGTLVTVSS
# VL: B1 VL with Q1S, S2Y, V3E, V41L, T44R, G52A, S53N, D83E, R95S, H99Y
# notes: IgG made in Expi293; also called #15; 15
# B11: 2H3 (antibody, V domains shown)
# VH: B1 VH with L11V, K13Q, P14S, G16R, A24G
# VL: B1 VL with T71A, A82T, D83E
# notes: IgG made in Expi293; also called 2F5; #65
# B12: #15m (antibody, V domains shown)
# VH: B10 VH
# VL: B1 VL with V41L, T44R, G52A, S53N, D83E, R95S, H99Y
# notes: Germline-edited (m) form of 12B11, light chain edited; IgG; also called 12B11 (modified)
# B13: 3H8 (antibody, V domains shown)
# VH: B1 VH with A24G, Q115R, L118T
# VL: B1 VL with S2P, P8L, V10A, A13T, V41L, T44R, G52A, S53N, D83E
# notes: IgG made in Expi293; also called #16; 16
# B14: #16m (antibody, V domains shown)
# VH: B1 VH with A24G, Q115R, L118T
# VL: B1 VL with P8L, V10A, A13T, V41L, T44R, G52A, S53N, D83E
# notes: Germline-edited (m) form of 3H8, light chain edited; IgG; also called 3H8 (modified)
# B15: 4E1 (antibody, V domains shown)
# VH: B1 VH with K13Q, S21A
# VL: B1 VL with Q1S, S2Y, V3E, V41L, T44R, G52A, S53N, T71A, D83E
# notes: IgG made in Expi293; also called #17; 17
# B16: #17m (antibody, V domains shown)
# VH: B1 VH with K13Q, S21A
# VL: B1 VL with V41L, T44R, G52A, S53N, T71A, D83E
# notes: Germline-edited (m) form of 4E1, light chain edited; IgG; also called 4E1 (modified)
# B17: 2H9 (antibody, V domains shown)
# VH: B8 VH with E1Q, Q3T, V5K, S114P
# VL: B1 VL with Q1S, S2Y, V3E, P8L, T71A
# notes: IgG made in Expi293; also called #18; 18
# B18: #18m (antibody, V domains shown)
# VH: B8 VH with S114P
# VL: QSVLTQPLSVSGAPGQRVTISCTGSSSNIGAGYDVHWYQQVPGTAPKLLIFGSTNRPSGVPDRFSGSKSGASASLAITGLQADDEADYYCQSYDRSLSHVFGTGTKVTVL
# notes: Germline-edited (m) form of 2H9, heavy and light chain edited; IgG; also called 2H9 (modified)
# B19: 12C11 (antibody, V domains shown)
# VH: B8 VH with G44R, S114P
# VL: B1 VL with T71A, A82T, D83E
# notes: IgG made in Expi293; also called #19; 19
# B20: 3E10 (antibody, V domains shown)
# VH: B8 VH with S114P
# VL: B1 VL with S2P, T71A, A82T, D83E
# notes: IgG made in Expi293; also called #20; 20
# B21: #20m (antibody, V domains shown)
# VH: B8 VH with S114P
# VL: B1 VL with T71A, A82T, D83E
# notes: Germline-edited (m) form of 3E10, light chain edited; IgG; also called 3E10 (modified)
# B22: 4H1 (antibody, V domains shown)
# VH: B1 VH with A24G
# VL: B1 VL with T71A, S92P, G111R
# notes: IgG made in Expi293; also called #3
# B23: 2G1 (antibody, V domains shown)
# VH: B8 VH with E1Q, Q3T, V5K, S114P
# VL: B1 VL with V41L, T71A, A82T, D83E
# notes: IgG made in Expi293; also called #21; 21
# B24: 1E6 (antibody, V domains shown)
# VH: B8 VH with S114P
# VL: B1 VL with V41L, T44R, G52A, S53N, T71A
# notes: IgG made in Expi293; also called #22; 22
# B25: 2H11 (antibody, V domains shown)
# VH: B8 VH with E1Q, E6Q, S114P, L120T
# VL: QSVLTQPPSVSGAPGQRVTISCTGSSSNIGAGYDVHWYQQLPGRAPKLLIFANTNRPSGVPDRFSGSKSGASASLAISGLQAEDEAHYYCQSYDRSLNVVFGGGTELTVLG
# notes: IgG made in Expi293; also called #23; 23
# B26: 2F1 (antibody, V domains shown)
# VH: B8 VH with S114P
# VL: QSVLTQPPSVSGAPGQRVTISCTGSSSNIGAGYDVHWYQQVPGTAPKLLIFGSTNRPSGVPDRFSGSKSGASASLAITGLQTEDEADYYCQSYDRSLSAWVFGGGTKLTVLG
# notes: IgG made in Expi293; also called #24; 24
# B27: 13C2 (antibody, V domains shown)
# VH: B8 VH with S114P
# VL: B1 VL with N55D, T71N, S72T, A76T, T78S, D83E
# notes: IgG made in Expi293; also called #25; 25
# B28: 2H8 (antibody, V domains shown)
# VH: B8 VH with V12A, S114P
# VL: B1 VL with V41L, T44A, K47R, I50M, S53N, T54S, D83E
# notes: IgG made in Expi293; also called #26; 26
# B29: 10A6 (antibody, V domains shown)
# VH: B8 VH
# VL: SYELTQPPSVSGAPGQRVTISCTGSSSNIGAGYDVHWYQQLPGAAPRLLMFGNSNRPSGVPDRFSGSKSGTSASLAITGLQAEDEADYYCQSYDSSLSYVFGTGTKVTVLG
# notes: IgG made in Expi293; also called #27; 27
# B30: #27m (antibody, V domains shown)
# VH: B8 VH
# VL: B29 VL with S1Q, Y2S, E3V
# notes: Germline-edited (m) form of 10A6, light chain edited; IgG; also called 10A6 (modified)
# B31: 4G2 (antibody, V domains shown)
# VH: B8 VH with S114P
# VL: B29 VL with S1Q, Y2S, E3V, Y99H
# notes: IgG made in Expi293; also called #28; 28
# B32: 4E3 (antibody, V domains shown)
# VH: B1 VH with A24G
# VL: B1 VL with T71A
# notes: IgG made in Expi293
# B33: 2G11 (antibody, V domains shown)
# VH: B8 VH with K13Q, S114P
# VL: B29 VL with S1Q, Y2S, E3V
# notes: IgG made in Expi293; also called #29; 29
# B34: 4G1 (antibody, V domains shown)
# VH: QVTLKESGGGLVKPGGSLRLSCAASGFRLSSYGMNWVRQAPGKGLEWVSSISASSSFINYADSVRDRFTISRDNAKNSLYLQMNSLRAEDTAVYYCARDDYGSGSYSNWFDPWGQGTLVTVSS
# VL: B1 VL with S25N, I29L, V41L, T44R, G52A, S53N, T71A, G79S
# notes: IgG made in Expi293; also called #33; 33
# B35: #33m (antibody, V domains shown)
# VH: B34 VH with Q1E, T3Q, K5V
# VL: B1 VL with S25N, I29L, V41L, T44R, G52A, S53N, T71A, G79S
# notes: Germline-edited (m) form of 4G1, heavy chain edited; IgG; also called 4G1 (modified)
# Molecular target: DS-Cav1 (RSV F-protein, pre-form, in-house) (respiratory syncytial virus (RSV), UniProt P03420 26-513)
# Experiment: ELISA, coated DS-Cav1, IgG titrated
# Chain of DS-Cav1 (RSV F-protein, pre-form, in-house) (P03420 26-524): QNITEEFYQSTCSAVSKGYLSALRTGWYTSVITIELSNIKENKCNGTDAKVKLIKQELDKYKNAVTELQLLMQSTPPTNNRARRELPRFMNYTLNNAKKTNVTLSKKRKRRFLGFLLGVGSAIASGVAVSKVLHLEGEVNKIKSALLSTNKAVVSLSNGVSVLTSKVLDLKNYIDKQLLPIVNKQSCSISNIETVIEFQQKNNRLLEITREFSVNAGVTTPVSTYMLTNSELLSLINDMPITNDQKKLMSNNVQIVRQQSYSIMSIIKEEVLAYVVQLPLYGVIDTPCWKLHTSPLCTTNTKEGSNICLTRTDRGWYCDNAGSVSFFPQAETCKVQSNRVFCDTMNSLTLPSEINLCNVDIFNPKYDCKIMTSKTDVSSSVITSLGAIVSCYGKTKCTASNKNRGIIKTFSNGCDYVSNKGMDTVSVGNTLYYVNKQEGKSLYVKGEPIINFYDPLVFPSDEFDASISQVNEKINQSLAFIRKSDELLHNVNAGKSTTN
row,Binder,Kd
1,B1,~1.01 nM
2,B2,~1.95 nM
3,B3,~0.38 nM
4,B4,~0.57 nM
5,B5,~2.01 nM
6,B6,~0.43 nM
7,B7,~1.82 nM
8,B8,~1.73 nM
9,B9,~0.48 nM
10,B10,~0.72 nM
11,B11,~0.98 nM
12,B12,~1.2 nM
13,B13,~0.51 nM
14,B14,~0.97 nM
15,B15,~0.56 nM
16,B16,~1.13 nM
17,B17,~0.38 nM
18,B18,~1.84 nM

row,Binder,Kd
1,B19,~0.72 nM
2,B20,~0.52 nM
3,B21,~0.88 nM
4,B22,~1.73 nM
5,B23,~0.55 nM
6,B24,~0.34 nM
7,B25,~0.45 nM
8,B26,~0.66 nM
9,B27,~1.16 nM
10,B28,~0.42 nM
11,B29,~1.56 nM
12,B30,~1.41 nM
13,B31,~1.05 nM
14,B32,~0.33 nM
15,B33,~0.85 nM
16,B34,~0.27 nM
17,B35,~0.97 nM
